Test results taken from article PMC9277520.

Key:
Test in all cases: SEC; BV-bound protein on a Superdex 200 10/300 GL column, absorbance at 280, 380 and 630 nm, calibrated with a standard protein mixture; self-association (monomer or tetramer)
[1] = biological target: Sandercyanin F55A variant (Stizostedion vitreum (Canadian walleye))
[2] = biological target: Sandercyanin F106A variant (Stizostedion vitreum (Canadian walleye))
[3] = biological target: Sandercyanin H108A variant (Stizostedion vitreum (Canadian walleye))
[4] = biological target: Sandercyanin Y142A variant (Stizostedion vitreum (Canadian walleye))
[5] = biological target: wild-type Sandercyanin (SFP) (Stizostedion vitreum (Canadian walleye))

“Sandercyanin F55A variant (natural protein)” showed a stoichiometry N [1] of 4.

Substance “Sandercyanin F106A variant (natural protein)” has a stoichiometry N [2] of 4.

With “Sandercyanin H108A variant (natural protein)” the stoichiometry N [3] was 4.

Substance “Sandercyanin Y142A variant (natural protein)” has a stoichiometry N [4] of 4.

In the case of “wild-type Sandercyanin (SFP) (natural protein)”, the stoichiometry N [5] is reported as 4.
